Data from patent publication US20130209454A1.

Columns and labels:
Assay in all cases: cell-based or functional assay
[1] = target: HIV-1 Env of strain 1056_10_TA11_1826 (HIV-1)
[2] = target: HIV-1 Env of strain 231965.c01 (HIV-1)
[3] = target: HIV-1 Env of strain 3016.v5.c45 (HIV-1)
[4] = target: HIV-1 Env of strain 6811.v7.c18 (HIV-1)
[5] = target: HIV-1 Env of strain 89-F1_2_25 (HIV-1)
[6] = target: HIV-1 Env of strain AC10.0.29 (HIV-1)
[7] = target: HIV-1 Env of strain C1080.c03 (HIV-1)
[8] = target: HIV-1 Env of strain CAAN5342.A2 (HIV-1)
[9] = target: HIV-1 Env of strain CAP45.2.00.G3 (HIV-1)
[10] = target: HIV-1 Env of strain CNE17 (HIV-1)
[11] = target: HIV-1 Env of strain CNE20 (HIV-1)
[12] = target: HIV-1 Env of strain CNE21 (HIV-1)
[13] = target: HIV-1 Env of strain CNE58 (HIV-1)
[14] = target: HIV-1 Env of strain Ce0682_E4 (HIV-1)
[15] = target: HIV-1 Env of strain Ce2010_F5 (HIV-1)
[16] = target: HIV-1 Env of strain Q23.17 (HIV-1)
[17] = target: HIV-1 Env of strain Q259.d2.17 (HIV-1)
[18] = target: HIV-1 Env of strain R2184.c04 (HIV-1)
[19] = target: HIV-1 Env of strain SC422661.8 (HIV-1)
[20] = target: HIV-1 Env of strain T250-4 (HIV-1)
[21] = target: HIV-1 Env of strain THRO4156.18 (HIV-1)
[22] = target: HIV-1 Env of strain X1193_c1 (HIV-1)
[23] = target: HIV-1 Env of strain ZM53M.PB12 (HIV-1)
[24] = target: HIV-1 Env of strain 703357.C02 (HIV-1)
[25] = target: HIV-1 strain 0815.v3.c3 envelope (gp120) (HIV-1)
[26] = target: HIV-1 strain 231965.c01 envelope (gp120) (HIV-1)
[27] = target: HIV-1 strain 3016.v5.c45 envelope (gp120) (HIV-1)
[28] = target: HIV-1 strain 3718.v3.c11 envelope (gp120) (HIV-1)
[29] = target: HIV-1 strain 6480.v4.c25 envelope (gp120) (HIV-1)
[30] = target: HIV-1 strain 703357.C02 envelope (gp120) (HIV-1)
[31] = target: HIV-1 strain 89-F1_2_25 envelope (gp120) (HIV-1)
[32] = target: HIV-1 strain 928-28 envelope (gp120) (HIV-1)
[33] = target: HIV-1 strain CAP45.2.00.G3 envelope (gp120) (HIV-1)
[34] = target: HIV-1 strain Ce0393_C3 envelope (gp120) (HIV-1)
[35] = target: HIV-1 strain Ce2060_G9 envelope (gp120) (HIV-1)
[36] = target: HIV-1 strain Du172.17 envelope (gp120) (HIV-1)
[37] = target: HIV-1 strain Q23.17 envelope (gp120) (HIV-1)
[38] = target: HIV-1 strain Q259.d2.17 envelope (gp120) (HIV-1)
[39] = target: HIV-1 strain Q461.e2 envelope (gp120) (HIV-1)
[40] = target: HIV-1 strain Q842.d12 envelope (gp120) (HIV-1)
[41] = target: HIV-1 strain QH0692.42 envelope (gp120) (HIV-1)
[42] = target: HIV-1 strain R1166.c01 envelope (gp120) (HIV-1)
[43] = target: HIV-1 strain RHPA4259.7 envelope (gp120) (HIV-1)
[44] = target: HIV-1 strain T251-18 envelope (gp120) (HIV-1)
[45] = target: HIV-1 strain T255-34 envelope (gp120) (HIV-1)
[46] = target: HIV-1 strain T278-50 envelope (gp120) (HIV-1)
[47] = target: HIV-1 strain TRJO4551.58 envelope (gp120) (HIV-1)
[48] = target: HIV-1 strain X2131_C1_B5 envelope (gp120) (HIV-1)
[49] = target: HIV-1 strain ZM214M.PL15 envelope (gp120) (HIV-1)
[50] = target: HIV-1 strain ZM233M.PB6 envelope (gp120) (HIV-1)

B1: NIH45-46^G54W (antibody, V domains shown)
VH: QVRLSQSGGQMKKPGESMRLSCRASGYEFLNCPINWIRLAPGRRPEWMGWLKPRWGAVNYARKFQGRVTMTRDVYSDTAFLELRSLTSDDTAVYFCTRGKYCTARDYYNWDFEHWGRGAPVTVSS
VL: EIVLTQSPATLSLSPGETAIISCRTSQSGSLAWYQQRPGQAPRLVIYSGSTRAAGIPDRFSGSRWGADYNLSISNLESGDFGVYYCQQYEFFGQGTKVQVDI
- IC50, pseudovirus neutralization [1]: 0.024 µg/mL
- IC50, pseudovirus neutralization [2]: 0.001 µg/mL
- IC50, pseudovirus neutralization [3]: 1.47 µg/mL
- IC50, pseudovirus neutralization [4]: 0.001 µg/mL
- IC50, pseudovirus neutralization [5]: > 50 µg/mL
- IC50, pseudovirus neutralization [6]: 0.13 µg/mL
- IC50, pseudovirus neutralization [7]: 0.2 µg/mL
- IC50, pseudovirus neutralization [8]: 0.07 µg/mL
- IC50, pseudovirus neutralization [9]: 32.2 µg/mL
- IC50, pseudovirus neutralization [10]: 0.036 µg/mL
- IC50, pseudovirus neutralization [11]: 0.04 µg/mL
- IC50, pseudovirus neutralization [12]: 0.03 µg/mL
- IC50, pseudovirus neutralization [13]: 0.02 µg/mL
- IC50, pseudovirus neutralization [14]: 0.01 µg/mL
- IC50, pseudovirus neutralization [15]: 0.038 µg/mL
- IC50, pseudovirus neutralization [16]: 0.01 µg/mL
- IC50, pseudovirus neutralization [17]: 0.001 µg/mL
- IC50, pseudovirus neutralization [18]: 0.005 µg/mL
- IC50, pseudovirus neutralization [19]: 0.02 µg/mL
- IC50, pseudovirus neutralization [20]: 1.33 µg/mL
- IC50, pseudovirus neutralization [21]: 0.54 µg/mL
- IC50, pseudovirus neutralization [22]: 0.001 µg/mL
- IC50, pseudovirus neutralization [23]: 0.04 µg/mL

B2: NIH45-46^G54F IgG (antibody, name in Kabat numbering, V domains shown)
VH: QVRLSQSGGQMKKPGESMRLSCRASGYEFLNCPINWIRLAPGRRPEWMGWLKPRFGAVNYARKFQGRVTMTRDVYSDTAFLELRSLTSDDTAVYFCTRGKYCTARDYYNWDFEHWGRGAPVTVSS
VL: EIVLTQSPATLSLSPGETAIISCRTSQSGSLAWYQQRPGQAPRLVIYSGSTRAAGIPDRFSGSRWGADYNLSISNLESGDFGVYYCQQYEFFGQGTKVQVDI
- neutralization IC50 [1]: 0.064 µg/mL
- neutralization IC50 [2]: 0.022 µg/mL
- neutralization IC50 [3]: 5.82 µg/mL
- neutralization IC50 [4]: 0.017 µg/mL
- neutralization IC50 [24]: 7.91 µg/mL
- neutralization IC50 [5]: > 50 µg/mL
- neutralization IC50 [6]: 0.24 µg/mL
- neutralization IC50 [7]: 0.36 µg/mL
- neutralization IC50 [8]: 0.1 µg/mL
- neutralization IC50 [10]: 0.075 µg/mL
- neutralization IC50 [11]: 0.53 µg/mL
- neutralization IC50 [12]: 0.12 µg/mL
- neutralization IC50 [13]: 0.04 µg/mL
- neutralization IC50 [14]: 0.011 µg/mL
- neutralization IC50 [15]: 0.046 µg/mL
- neutralization IC50 [16]: 0.03 µg/mL
- neutralization IC50 [17]: 0.009 µg/mL
- neutralization IC50 [18]: 0.015 µg/mL
- neutralization IC50 [19]: 0.04 µg/mL
- neutralization IC50 [20]: > 50 µg/mL
- neutralization IC50 [21]: 0.89 µg/mL
- neutralization IC50 [22]: < 0.001 µg/mL
- neutralization IC50 [23]: 0.08 µg/mL
- neutralization IC80 [25]: 0.014 µg/mL
- neutralization IC80 [26]: 0.062 µg/mL
- neutralization IC80 [27]: 37 µg/mL
- neutralization IC80 [28]: 4.62 µg/mL
- neutralization IC80 [29]: 0.046 µg/mL
- neutralization IC80 [30]: > 50 µg/mL
- neutralization IC80 [31]: > 50 µg/mL
- neutralization IC80 [32]: 0.41 µg/mL
- neutralization IC80 [33]: > 50 µg/mL
- neutralization IC80 [34]: 0.173 µg/mL
- neutralization IC80 [35]: 0.085 µg/mL
- neutralization IC80 [36]: > 50 µg/mL
- neutralization IC80 [37]: 0.07 µg/mL
- neutralization IC80 [38]: 0.036 µg/mL
- neutralization IC80 [39]: 0.135 µg/mL
- neutralization IC80 [40]: 0.039 µg/mL
- neutralization IC80 [41]: 1.65 µg/mL
- neutralization IC80 [42]: 1.32 µg/mL
- neutralization IC80 [43]: 0.02 µg/mL
- neutralization IC80 [44]: 1.38 µg/mL
- neutralization IC80 [45]: 0.198 µg/mL
- neutralization IC80 [46]: > 50 µg/mL
- neutralization IC80 [47]: 0.08 µg/mL
- neutralization IC80 [48]: 0.41 µg/mL
- neutralization IC80 [49]: 0.3 µg/mL
- neutralization IC80 [50]: 0.99 µg/mL
